To fix the notation:
B1: F1*; the commonest letter at each place (parent)
chain: GAGACCGCAACTGAAAAGTTGTTATCACTTGTCGTAAGACACTTTGGATGGGTTGAAGTTCTGCACGTAGAAGCAAAAGGC

Variants of B1 are the subject of the data set. Kind of data set: fraction ligated after 30 min (ligated reads / total reads); higher = more ligase activity. The following applies: with F1*sub RNA substrate (template-directed ligation), 42 °C. Here is the method: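 Chip-synthesised pool of F1* ligase ribozyme variants (all single and double substitutions, single, double and triple deletions in the catalytic core and GAA bulge, plus designed variants) was transcribed with T7 and reacted as a pool with excess substrate F1*sub for 30 min at 42 C in 50 mM EPPS pH 8.5, 25 mM MgCl2. Ligated and unligated bands were separated by PAGE, barcoded by RT and deep sequenced; fraction ligated = ligated reads / total reads per variant, relative activity = FL / FL of wild type (0.826). Sequences are the DNA template of the ribozyme.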
On to GAGACCGCAACTGAAAAGTTGTTATCAATTGTCGTAAGACACTGTGGATGGGTTGAAGTTCTGCACGTAGAAGCAAAAGGC [C28A T44G], for which the fraction ligated worked out at 0.798.

As for GAGACCGCAACTGAAAAGTTGTTATCACTTGTCGTAAGGCACTTTGGATAGGTTGAAGTTCTGCACGTAGAAGCAAAAGGC [A39G G50A], the fraction ligated was 0.671.

As for GAGACCGCAACTGAAAAGTTGTTATCACTTGTCGTAAGACACTTTGGTGGGGTTGAAGTTCTGCACGTAGAAGCAAAAGGC [A48T T49G], the fraction ligated was 0.348.

Consider GAGACCGCAACTGAAAAGTTGTTATCACTTGTCGTAAGACACTTTGGATGGGTTCCGGTTCTGCACGTAGAAGCAAAAGGC [G55C A56C A57G], for which the fraction ligated was determined as 0.0246.

With GAGACCGCAACTGAAAAGTTGTTATCACTTGTCCTAAGACACTTTGGTTGGGTTGAAGTTCTGCACGTAGAAGCAAAAGGC [G34C A48T], the fraction ligated came out at 0.781.

As for GAGACCGCAACTGAAAAGTTGTTATCACTTGTCGTAAGACAGCTTGGATGGGTTGAAGTTCTGCACGTAGAAGCAAAAGGC [C42G T43C], the fraction ligated worked out at 0.836.

Take GAGACCGCAACTGAAAAGTTGTTATCACTTGTCGGAAGACACTTTGGATGGGTTTAAGTTCTGCACGTAGAAGCAAAAGGC [T35G G55T]: the fraction ligated turned out to be 0.809.

In the case of GAGACCGCAACTGAAAAGTTGTTATCACTTGTCGTGAGACACTTTGGATGGGTTAAAGTTCTGCACGTAGAAGCAAAAGGC [A36G G55A], the fraction ligated amounted to 0.867.

On to GAGACCGCAACTGAAAAGTTGTTATCACTTGTCGTGAGACACTTTGGATGGGTTTAAGTTCTGCACGTAGAAGCAAAAGGC [A36G G55T], for which the fraction ligated worked out at 0.809.

With GAGACCGCAACTGAAAAGTTGTTATCACTTGTCGTAAGACATTTTGGAAGGGTTGAAGTTCTGCACGTAGAAGCAAAAGGC [C42T T49A], the fraction ligated amounted to 0.791.

For the variant GAGACCGCAACTGAAAAGTTGTTATCACCTATCGTAAGACACTTTGGATGGGTTGAAGTTCTGCACGTAGAAGCAAAAGGC [T29C G31A], the fraction ligated is 0.796.

As to GAGACCGCAACTGAAAAGTTGTGATCACTTGTCGTAAGACACTTTGGATGGGTTGATGTTCTGCACGTAGAAGCAAAAGGC [T23G A57T], the fraction ligated came to 0.812.

As for GAGACCGCAACTGAAAAGTTGTTATCGCTTGTCGTAAGAGACTTTGGATGGGTTGAAGTTCTGCACGTAGAAGCAAAAGGC [A27G C40G], the fraction ligated was 0.813.

Take GAGACCGCAACTGAAAAGTTGTTATCGCTTGTCGTAAGAAACTTTGGATGGGTTGAAGTTCTGCACGTAGAAGCAAAAGGC [A27G C40A]: the fraction ligated amounted to 0.79.

Consider GAGACCGCAACTGAAAAGTTGTGATCACTTGTCGTAAAACACTTTGGATGGGTTGAAGTTCTGCACGTAGAAGCAAAAGGC [T23G G38A], for which the fraction ligated was determined as 0.803.

Take GAGACCGCAACTGAAAAGTTGTTATCATTTGTCGTAAGACACTTTGGATGGGTTCAAGTTCTGCACGTAGAAGCAAAAGGC [C28T G55C]: the fraction ligated was 0.221.

GAGACCGCAACTGAAAAGTTGTTATCACTTGGCGTAAAACACTTTGGATGGGTTGAAGTTCTGCACGTAGAAGCAAAAGGC [T32G G38A]: the fraction ligated worked out at 0.822.

For the variant GAGACCGCAACTGAAAAGTTGTTATCACTTGTCGTATGACTCTTTGGATGGGTTGAAGTTCTGCACGTAGAAGCAAAAGGC [A37T A41T], the fraction ligated worked out at 0.815.

On to GAGACCGCAACTGAAAAGTTGTTATCACTTGTCGTAATATACTTTGGATGGGTTGAAGTTCTGCACGTAGAAGCAAAAGGC [G38T C40T], for which the fraction ligated was 0.805.

Regarding GAGACCGCAACTGAAAAGTTGTTATCACTTGTCCTAAGACACTTTGGATGGGTTTAAGTTCTGCACGTAGAAGCAAAAGGC [G34C G55T], the fraction ligated was determined as 0.809.

With GAGACCGCAACTGAAAAGTTGTTATCACTTGTCGTAAGACCCTTTGGACGGGTTGAAGTTCTGCACGTAGAAGCAAAAGGC [A41C T49C], the fraction ligated turned out to be 0.17.

In the case of GAGACCGCAACTGAAAAGTTGTTAACACTTGTCGTAAGACACTTTGGATGGGTTTAAGTTCTGCACGTAGAAGCAAAAGGC [T25A G55T], the fraction ligated amounted to 0.0485.

GAGACCGCAACTGAAAAGTTGTTATCACTTGTCGTAAGACTCTTTGGACGGGTTGAAGTTCTGCACGTAGAAGCAAAAGGC [A41T T49C]: the fraction ligated was found to be 0.658.

For the variant GAGACCGCAACTGAAAAGTTGTTATCACTTGTCGTAAGACACTGTGGATAGGTTGAAGTTCTGCACGTAGAAGCAAAAGGC [T44G G50A], the fraction ligated came to 0.132.

Regarding GAGACCGCAACTGAAAAGTTGTTATCACTCGTCGTAAGACACTTTGTATGGGTTGAAGTTCTGCACGTAGAAGCAAAAGGC [T30C G47T], the fraction ligated was 0.358.

Consider GAGACCGCAACTGAAAAGTTGTTATCACTTGTCGTAAGACACTTTGGATGGGTTGACGTTCTGCACGTAGAAGCAAAAGGC [A57C], for which the fraction ligated amounted to 0.814.

Turning to GAGACCGCAACTGAAAAGTTGTTATCACATGTCGTAAGACACTATGGATGGGTTGAAGTTCTGCACGTAGAAGCAAAAGGC [T29A T44A], the fraction ligated turned out to be 0.833.

Take GAGACCGCAACTGAAAAGTTGTTTTCACTTGTCGTAAGACACTTTGTATGGGTTGAAGTTCTGCACGTAGAAGCAAAAGGC [A24T G47T]: the fraction ligated is 0.108.

For GAGACCGCAACTGAAAAGTTGTTATCACTTGTCGTAAGACAGTTTAGATGGGTTGAAGTTCTGCACGTAGAAGCAAAAGGC [C42G G46A], the fraction ligated was 0.808.

In the case of GAGACCGCAACTGAAAAGTTGTTATCACTTGTCGCAAGACACCTTGGATGGGTTGAAGTTCTGCACGTAGAAGCAAAAGGC [T35C T43C], the fraction ligated turned out to be 0.777.

In the case of GAGACCGCAACTGAAAAGTTGTTAACACTTGTCGTAACACACTTTGGATGGGTTGAAGTTCTGCACGTAGAAGCAAAAGGC [T25A G38C], the fraction ligated was 0.0835.

Regarding GAGACCGCAACTGAAAAGTTGTTATCACTTGTCGTTAGACACTTTGGACGGGTTGAAGTTCTGCACGTAGAAGCAAAAGGC [A36T T49C], the fraction ligated worked out at 0.742.

As to GAGACCGCAACTGAAAAGTTGTTATCACTTGTCGTACGACACTTCGGATGGGTTGAAGTTCTGCACGTAGAAGCAAAAGGC [A37C T45C], the fraction ligated came out at 0.778.

On to GAGACCGCAACTGAAAAGTTGTTCTCACTTGTCGTAAGACACTTCGGATGGGTTGAAGTTCTGCACGTAGAAGCAAAAGGC [A24C T45C], for which the fraction ligated is 0.0358.

The values are drawn from the supplement of paper PMC6755084.
